# In patent US11608374 (dated 2023):
# Where a chain is given by its changes, count along the chain named.
# T1: cynomolgus sclerostin (cynomolgus monkey)
# T1 chain: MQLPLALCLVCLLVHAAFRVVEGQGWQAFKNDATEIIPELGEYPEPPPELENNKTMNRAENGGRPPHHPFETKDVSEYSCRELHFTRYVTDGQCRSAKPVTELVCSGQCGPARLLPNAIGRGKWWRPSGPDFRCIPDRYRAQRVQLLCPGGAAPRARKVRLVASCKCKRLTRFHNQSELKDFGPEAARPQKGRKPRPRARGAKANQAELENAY
# T2: human sclerostin (human)
# T2 chain: T1 chain with A16T, Q93P, A152E, P184T, G201S
# T3: mouse sclerostin (mouse)
# T3 chain: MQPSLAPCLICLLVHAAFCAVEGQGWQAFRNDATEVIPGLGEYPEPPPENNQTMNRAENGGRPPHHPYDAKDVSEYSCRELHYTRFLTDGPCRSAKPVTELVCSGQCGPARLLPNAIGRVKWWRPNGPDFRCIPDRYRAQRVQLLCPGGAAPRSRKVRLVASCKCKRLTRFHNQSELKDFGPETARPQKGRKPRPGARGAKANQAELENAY
# T4: rat sclerostin (rat)
# T4 chain: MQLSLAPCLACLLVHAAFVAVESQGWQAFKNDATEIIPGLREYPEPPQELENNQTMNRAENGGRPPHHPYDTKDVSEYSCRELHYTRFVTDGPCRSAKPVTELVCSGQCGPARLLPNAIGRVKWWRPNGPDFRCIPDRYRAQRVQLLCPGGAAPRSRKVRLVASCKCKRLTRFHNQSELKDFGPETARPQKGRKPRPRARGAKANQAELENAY
# B1: amH848/abL152 (antibody, V domains shown)
# VH: EVQLVQSGAEVKKPGASVKVSCKASGYTFTSYNMHWVRQAPGKGLEWMGEIMPHSGRYGLKQKFKGRVTMTRDTSISTAYMELSRLRSDDTAVYYCARLEYSEIYDDWYFDVWGQGTTVTVSS
# VL: DIQMTQSPSSLSASVGDRVTITCRASEGIHDALAWYQQKPGKAPKLLIYWASTLESGVPSRFSGSGSGTDFTLTISSLQPEDFATYYCQQGDTLPYTFGGGTKVEIK
# B2: amH852/bsH638/abL152 (antibody)
# chain 1: B1 VH with S31D, R72T, I76T, S84R, R85S
# chain 2: B1 VL
# chain 3: QVQLVQSGAEVKKPGASVKVSCKVSGYTLTHTFMHWVRQAPGKGLEWMGWSDPEIGDHEYASKFQGRVTMTEDTSTDTAYMELSSLRSEDTAVYYCATGDTTYKFDYWGQGTLVTVSS
# chain 4: B1 VL
# B3: amH852/bsH656/abL152 (antibody)
# chain 1: B1 VH with S31D, R72T, I76T, S84R, R85S
# chain 2: B1 VL
# chain 3: B2 chain 3 with H58T
# chain 4: B1 VL
# B4: bsH638/abL152 (antibody, V domains shown)
# VH: B2 chain 3
# VL: B1 VL
# B5: amH848/bsH656/abL152 (antibody)
# chain 1: B1 VH
# chain 2: B1 VL
# chain 3: B2 chain 3 with H58T
# chain 4: B1 VL
# B6: bsH656/abL152 (antibody, V domains shown)
# VH: B2 chain 3 with H58T
# VL: B1 VL
# B7: amH848/bsH638/abL152 (antibody)
# chain 1: B1 VH
# chain 2: B1 VL
# chain 3: B2 chain 3
# chain 4: B1 VL
# B8: amH852/abL152 (antibody, V domains shown)
# VH: B1 VH with S31D, R72T, I76T, S84R, R85S
# VL: B1 VL
# B9: mabA_NpH1 (antibody, V domains shown)
# VH: EVQLVQSGAEVKKPGASVKVSCKASGYTFTDYNMHWVRQAPGQGLEWMGEINPNSGGAGYNQKFKGRVTMTTDTSTSTAYMELRSLRSDDTAVYYCARLGYDDIYDDWYFHVWGQGTTVTVSS
# VL: B1 VL with E27Q, G28D, H30S, D31N, A32Y, A34N, W50H, A51T, T53R, E55L
# B10: mabA (antibody, V domains shown)
# VH: B9 VH with H111D
# VL: B1 VL with E27Q, G28D, H30S, D31N, A32Y, A34N, W50Y, A51T, T53R, E55L
# B11: mabA_NpH2 (antibody, V domains shown)
# VH: B9 VH with H111D
# VL: B1 VL with E27Q, G28D, H30S, D31N, A32Y, A34N, W50H, A51T, T53R, E55L
# B12: mabB (antibody, V domains shown)
# VH: B2 chain 3 with Y27F, T28P, L29I, T30K, H31D, M34Q, H58T, Y107F, L113T
# VL: DIQMTQSPSSLSASVGDRVTITCKASQDVHTAVAWYQQKPGKAPKLLIYWASTRWTGVPSRFSGSGSGTDFTLTISSLQPEDFATYYCQQYSDYPWTFGGGTKVEIK
# B13: mabA_NpH3 (antibody, V domains shown)
# VH: B9 VH with H111D
# VL: DIQMTQSPSSLSASVGDRVTITCRASQDISNYLNWYQQKPGKAPKLLIYYHSRLLSGVPSRFSGSGSGTDFTLTISSLQPEDFATYYCHQGDTLPYTFGGGTKVEIK
# B14: mabA_pH4 (antibody, V domains shown)
# VH: B9 VH with N54H, G57H, G100H, Y105H, H111D
# VL: B13 VL with Q27H, S30H, H51T, H89Q
# B15: mabB_pH1 (antibody, V domains shown)
# VH: B2 chain 3 with Y27F, T28P, L29I, T30K, T32H, M34Q, H58T, Y107F, L113T
# VL: B12 VL with S92H
# B16: mabB_pH4 (antibody, V domains shown)
# VH: B2 chain 3 with Y27F, T28P, L29I, T30K, T32H, M34Q, H58T, Y107F, L113T
# VL: B12 VL with P95H
# B17: mabB_pH5 (antibody, V domains shown)
# VH: B2 chain 3 with Y27F, T28P, L29I, T30K, T32H, M34Q, H58T, D100H, Y107F, L113T
# VL: B12 VL with P95H
# B18: mabB//mabA_pH2 (antibody)
# chain 1: B2 chain 3 with Y27F, T28P, L29I, T30K, H31D, M34Q, H58T, Y107F, L113T
# chain 2: B12 VL
# chain 3: B9 VH with G57H, G100H, D103H, H111D
# chain 4: B13 VL with Q27H, H51T, H89Q
# B19: mabB//mabA_pH1 (antibody)
# chain 1: B2 chain 3 with Y27F, T28P, L29I, T30K, H31D, M34Q, H58T, Y107F, L113T
# chain 2: B12 VL
# chain 3: B9 VH with G57H, G100H, H111D
# chain 4: B13 VL with Q27H, H51T, H89Q
# B20: mabB//mabA_pH3 (antibody)
# chain 1: B2 chain 3 with Y27F, T28P, L29I, T30K, H31D, M34Q, H58T, Y107F, L113T
# chain 2: B12 VL
# chain 3: B9 VH with N54H, G57H, G100H, Y105H, H111D
# chain 4: B13 VL with Q27H, H51T, H89Q
# Target: T1, cynomolgus sclerostin
# Test: SPR, pH 7.4
row,koff [s⁻¹],Binder
1,0.00854,B1
2,0.000387,B2
3,0.000405,B3
4,0.0107,B4
5,0.000606,B5
6,0.0108,B6
7,0.000606,B7
8,0.0019,B8

# Target: T2, human sclerostin
# Test: SPR, pH 7.4
row,koff [s⁻¹],Binder
1,0.00946,B1
2,0.000418,B2
3,0.000419,B3
4,0.0093,B4
5,0.000515,B5
6,0.0104,B6
7,0.000596,B7
8,0.00257,B8

# Target: T1, cynomolgus sclerostin
# Test: SPR, pH 5.8, 37C
row,Kd [pM],Binder
1,459,B9
2,1400,B10
3,627,B11

# Target: T2, human sclerostin
# Test: SPR, pH 5.8, 37C
row,Kd [pM],Binder
1,435,B9
2,1440,B10
3,690,B11

# Target: T1, cynomolgus sclerostin
# Test: SPR, pH 7.4, 37C
row,Kd [pM],Binder
1,189,B9
2,75.3,B10
3,280,B11

# Target: T3, mouse sclerostin
# Test: SPR, pH 5.8, 37C
row,Kd [pM],Binder
1,503,B9
2,0.0168,B11
3,260,B12

# Target: T4, rat sclerostin
# Test: SPR, pH 5.8, 37C
row,Kd [pM],Binder
1,292,B9
2,0.00307,B10
3,0.0736,B11
4,45.4,B13

# Target: T2, human sclerostin
# Test: SPR, pH 7.4, 37C
row,Kd [pM],Binder
1,193,B9
2,80,B10
3,323,B11

# Target: T3, mouse sclerostin
# Test: SPR, pH 7.4, 37C
row,Kd [pM],Binder
1,204,B9
2,0.00302,B10
3,5.57,B11
4,1730,B14
5,138,B15
6,782,B16
7,589,B17
8,14.1,B12

# Target: T4, rat sclerostin
# Test: SPR, pH 7.4, 37C
row,Kd [pM],Binder
1,82.6,B9
2,0.0938,B10
3,6.61,B11
4,42.6,B13

# Target: T1, cynomolgus sclerostin
# Test: SPR, pH 7.4 to 5.8
row,koff [s⁻¹],Binder
1,0.0598,B2
2,0.116,B3
3,0.374,B5
4,0.227,B7
5,0.107,B8

# Target: T2, human sclerostin
# Test: SPR, pH 7.4 to 5.8
row,koff [s⁻¹],Binder
1,0.028,B2
2,0.0593,B3
3,0.222,B5
4,0.1,B7
5,0.0882,B8

# Target: T3, mouse sclerostin
# Test: SPR, pH 7.4 to 5.8, 37C
row,koff [s⁻¹],Binder
1,0.0186,B18
2,0.0347,B19
3,0.0418,B14
4,0.0516,B20
5,0.0206,B15
